Earlier results on one substance are cited in paper PMC4518304.

The target in this data set is Asp26 (UniProt position 27, GAILVDFWAEW). The data set is described as follows: NMR. To be noted: reduced thioredoxin (per title of ref. 51).

On to “Thioredoxin (thioredoxin 1) (Escherichia coli)”, for which the pKa was 7.3–7.5.
